Patent publication US20150320832A1

Molecular target: Flightless I protein (human, endogenous in MET-1 and CC keratinocytes) (human) (UniProt Q13045)
Assay: cell-based or functional assay

Sequence of UniProt Q13045 (Q13045 whole entry): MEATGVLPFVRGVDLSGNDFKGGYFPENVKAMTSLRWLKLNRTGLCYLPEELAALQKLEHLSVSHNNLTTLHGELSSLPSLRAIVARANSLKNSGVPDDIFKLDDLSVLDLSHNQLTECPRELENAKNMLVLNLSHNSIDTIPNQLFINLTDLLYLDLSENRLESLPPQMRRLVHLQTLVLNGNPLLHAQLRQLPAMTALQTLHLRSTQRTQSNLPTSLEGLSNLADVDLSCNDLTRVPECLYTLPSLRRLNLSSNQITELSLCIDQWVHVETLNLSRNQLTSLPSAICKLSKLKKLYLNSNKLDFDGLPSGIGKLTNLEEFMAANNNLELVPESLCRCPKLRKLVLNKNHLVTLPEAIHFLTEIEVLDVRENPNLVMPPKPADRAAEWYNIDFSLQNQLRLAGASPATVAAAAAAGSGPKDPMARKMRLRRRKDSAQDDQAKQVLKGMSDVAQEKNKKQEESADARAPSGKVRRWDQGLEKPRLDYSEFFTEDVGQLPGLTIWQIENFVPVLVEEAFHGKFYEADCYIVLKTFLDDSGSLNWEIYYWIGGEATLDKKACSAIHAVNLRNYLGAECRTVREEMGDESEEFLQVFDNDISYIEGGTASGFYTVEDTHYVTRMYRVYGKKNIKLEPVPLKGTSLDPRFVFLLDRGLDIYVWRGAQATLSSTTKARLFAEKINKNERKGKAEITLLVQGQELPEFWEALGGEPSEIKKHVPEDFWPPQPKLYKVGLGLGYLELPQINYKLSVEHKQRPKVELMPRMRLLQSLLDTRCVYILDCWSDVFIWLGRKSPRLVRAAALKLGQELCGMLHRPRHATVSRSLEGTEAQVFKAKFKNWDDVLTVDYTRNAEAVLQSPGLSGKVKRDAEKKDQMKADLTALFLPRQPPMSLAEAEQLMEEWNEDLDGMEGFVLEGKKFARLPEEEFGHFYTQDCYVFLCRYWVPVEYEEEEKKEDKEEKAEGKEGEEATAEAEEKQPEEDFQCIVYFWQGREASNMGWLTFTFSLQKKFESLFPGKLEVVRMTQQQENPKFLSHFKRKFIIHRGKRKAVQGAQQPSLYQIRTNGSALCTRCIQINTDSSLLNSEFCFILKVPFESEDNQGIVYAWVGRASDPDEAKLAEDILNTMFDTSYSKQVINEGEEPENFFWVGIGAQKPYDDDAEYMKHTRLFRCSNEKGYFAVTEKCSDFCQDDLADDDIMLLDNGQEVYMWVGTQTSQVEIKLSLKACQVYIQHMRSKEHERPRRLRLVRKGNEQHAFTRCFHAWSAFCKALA

decrease in cell invasion properties of RDEB-SCC (CC) cells, 3D organotypic model: 30%
decrease in cell invasion properties of sporadic SCC (MET-1) cells, 3D organotypic model: 60%
Substance: rFLAP-1 protein (LRRFIP1 (657-784) Protein-H00009208-Q01, Abnova Technologies) (from UniProt Q32MZ4 657-784)
